{"source": "paper PMC2856455", "about": "(Journal of molecular biology, 2010)", "key": {"MDMX": {"biological_target": "T1, MDMX (Homo sapiens, UniProt O15151)", "T1 sequence (O15151 24-108)": "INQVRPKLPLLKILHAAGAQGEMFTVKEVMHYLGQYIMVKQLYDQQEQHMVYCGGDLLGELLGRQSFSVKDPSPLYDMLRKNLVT", "experiment": "SPR-based competition binding assay, synthetic 24–108MDMX"}, "MDM2": {"biological_target": "MDM2 (Homo sapiens, UniProt Q00987)", "experiment": "SPR-based competition binding assay, synthetic 25–109MDM2"}, "[1]": {"conditions": "calculated binding free energy relative to PMI"}}, "data": [{"sequence": "TSFAEYWNLASP [L10A-PMI]", "values": [{"measurement": "ΔΔG, PMI-MDMX", "setting": "MDMX; [1]", "value": 9.54, "unit": "kJ/mol"}, {"measurement": "Kd ratio (kcal/mol), PMI-MDMX", "setting": "MDMX; relative to PMI", "value": 50, "unit": "kcal/mol"}, {"measurement": "ΔΔG(kcal/mol), PMI-MDM2", "setting": "MDM2; [1]", "value": 3.28, "unit": "kcal/mol"}, {"measurement": "preference between MDM2 and MDMX", "setting": "MDM2; comparison of binding affinities for MDM2 and MDMX", "value": "higher binding affinity for MDMX than for MDM2"}, {"measurement": "difference in relative binding free energy, MDM2 versus MDMX", "setting": "MDM2; mutation more deleterious to MDM2 than to MDMX", "value": 4.18, "unit": "kJ/mol"}, {"measurement": "Kd ratio, PMI-MDM2", "setting": "MDM2; relative to PMI", "value": 277}]}]}
